This is an account of results in patent publication US20070059320A1 (HOSPITAL FOR SICK CHILDREN, published 2007).

Ends that are not written are not given here.

In assay [1] the target is T1, GluR2, native protein in PSD preparations (rat, UniProt P19491 22-883, limits assumed).
T1 construct: also called AMPA receptor complex
Nature of the assay: co-immunoprecipitation from PSD preparations with anti-GluR2, probed with anti-ND2.

For assay [2], the target named is T2, potassium channel Kv3.1, native protein in PSD preparations (rat, UniProt P25122 1-585).
T2 sequence (looked up): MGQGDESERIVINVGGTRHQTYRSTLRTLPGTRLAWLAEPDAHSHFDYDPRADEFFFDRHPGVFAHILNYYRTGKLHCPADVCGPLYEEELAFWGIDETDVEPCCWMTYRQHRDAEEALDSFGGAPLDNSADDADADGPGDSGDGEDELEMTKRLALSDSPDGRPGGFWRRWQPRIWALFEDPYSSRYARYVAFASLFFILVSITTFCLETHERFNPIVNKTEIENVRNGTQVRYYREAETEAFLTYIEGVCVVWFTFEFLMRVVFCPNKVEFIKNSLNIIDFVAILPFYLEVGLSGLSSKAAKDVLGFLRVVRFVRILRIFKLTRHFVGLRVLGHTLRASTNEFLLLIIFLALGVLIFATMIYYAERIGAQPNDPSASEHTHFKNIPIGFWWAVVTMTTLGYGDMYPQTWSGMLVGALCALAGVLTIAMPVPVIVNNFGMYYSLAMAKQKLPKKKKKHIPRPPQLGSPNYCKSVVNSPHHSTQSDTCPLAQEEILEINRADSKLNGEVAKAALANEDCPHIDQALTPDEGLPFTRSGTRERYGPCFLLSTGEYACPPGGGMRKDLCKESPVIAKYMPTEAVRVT
As to the kind of experiment: co-immunoprecipitation from PSD preparations with anti-Kv3.1, probed with anti-ND2.

Assay [3] has as its target non-receptor tyrosine kinase Src, native protein in brain lysates, PSD preparations, hippocampal neurons and … (rat, UniProt Q9WUD9 2-536, limits assumed). Nature of the assay: GST pull-down from PSD preparations, immunoblot.
Assay [4] concerns the target T3, recombinant Src unique domain (biotinylated probe) (murine (n-Src), UniProt P12931 5-83 (human entry), biotinylated).
T3 construct: also called unique domain of Src; Src unique domain protein; not shown: GST tag of vector pGEX2T'6; purified as GST fusion protein
As to the kind of experiment: blot of ND2-GST fusion proteins probed with biotinylated Src unique domain, streptavidin-HRP.

T1 sequence (P19491 22-883 limits assumed): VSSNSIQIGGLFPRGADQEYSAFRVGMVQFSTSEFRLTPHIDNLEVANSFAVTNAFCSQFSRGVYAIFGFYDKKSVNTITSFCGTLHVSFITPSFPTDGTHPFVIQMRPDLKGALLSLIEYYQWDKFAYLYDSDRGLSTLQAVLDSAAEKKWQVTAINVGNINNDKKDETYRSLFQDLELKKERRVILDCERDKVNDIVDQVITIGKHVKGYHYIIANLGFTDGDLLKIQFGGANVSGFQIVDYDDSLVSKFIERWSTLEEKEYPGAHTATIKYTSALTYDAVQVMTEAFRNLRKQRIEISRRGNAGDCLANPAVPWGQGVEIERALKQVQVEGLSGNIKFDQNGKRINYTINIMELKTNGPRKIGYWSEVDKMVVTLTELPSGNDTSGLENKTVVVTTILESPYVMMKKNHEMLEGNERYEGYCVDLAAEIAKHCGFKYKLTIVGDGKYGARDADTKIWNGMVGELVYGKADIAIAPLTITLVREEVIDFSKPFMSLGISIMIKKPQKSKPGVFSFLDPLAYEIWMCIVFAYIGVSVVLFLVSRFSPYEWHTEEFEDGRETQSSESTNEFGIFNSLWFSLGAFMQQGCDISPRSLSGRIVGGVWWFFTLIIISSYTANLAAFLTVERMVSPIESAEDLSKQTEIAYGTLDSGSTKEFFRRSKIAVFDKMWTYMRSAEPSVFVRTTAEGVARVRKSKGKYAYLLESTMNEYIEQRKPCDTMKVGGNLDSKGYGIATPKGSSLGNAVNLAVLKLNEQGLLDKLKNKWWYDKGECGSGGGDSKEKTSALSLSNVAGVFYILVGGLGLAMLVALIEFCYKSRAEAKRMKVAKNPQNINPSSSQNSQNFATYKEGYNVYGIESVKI

B1: NADH dehydrogenase subunit 2 (ND2), native protein in brain lysates, PSD preparations, hippocampal neurons and tissues (other, UniProt P11662 1-346, looked up)
chain: MNPITLIIIYFTILMGPVITMSSSNLLLMWVGLEMSLLAIIPLLANKKSPRSTEAATKYFLTQATASMIILLVIILNYKQSGMWTLQQQTNNMLLNMMLISLAMKLGLAPFHYWLPEVTQGIPLHIGLILLTWQKIAPLSILYQFYQLLNPTITTILAISSVFVGAWGGLNQTQTRKIMAYSSIAHMGWMTAILPYNPNLTLLNLTIYILLTVPMFITLMTNSATTINTLSLAWNKTPMILTMTSIILLSLGGLPPLTGFLPKWAIISELLKNNCSTLSTLMAIMALLSLFFYTRLIYSMSLTMFPTNNNSKMISHHHQNPKHNFILPTLTVLSTLTLPLSSQLIT
Consider B1, for which the binding result in assay [1] and in assay [2] was “no binding” throughout.

B2: ND2.3-GST fusion protein (amino acids 1-188 of human ND2) (other)
chain: MNPLAQPVIYSTIFAGTLITALSSHWFFTWVGLEMNMLAFIPVLTKKMNPRSTEAAIKYFLTQATASMILLMAILFNNMLSGQWTMTNTTNQYSSLMIMMAMAMKLGMAPFHFWVPEVTQGTPLTSGLLLLTWQKLAPISIMYQISPSLNVSLLLTLSILSIMAGSWGGLNQTQLRKILAYSSITHMG
notes: not shown: glutathione S-transferase (GST) tag of vector pGEX4T-1
In the case of B2, the binding result in assay [3] is given as “no binding”.

B3: ND2.2-GST fusion protein (amino acids 189-238 of human ND2) (other)
chain: WMMAVLPYNPNMTILNLTIYIILTTTAFLLLNLNSSTTTLLLSRTWNKLT
modifications: also: fused to GST tag of pGEX vector, sequence and linker not given here
notes: as for B2
For B3, the binding result in assay [3] and in assay [4] was “no binding” in each case.
